Measurements reported in the supplement of paper PMC9170038.

Columns and labels:
MS2 coat protein [1] = experiment: apparent KD of MS2 coat protein, switch OFF state (with FMN for OFF switches, without FMN for ON switches); designed switch direction (-1 OFF switch, 1 ON switch): -1; higher = weaker reporter binding; conditions: FMN input: 0 or 200 uM; Eterna round: R93 (includes R88 designs)
How it was run: (§1)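 Apparent KD was obtained for each design as the median of normalised binding-curve fits over its clusters. RNA switches transcribed on-chip from Illumina sequencing clusters were titrated with SNAP-549-labelled MS2 coat protein (twofold steps, 0.7 or 1.5 nM to 3 µM) in 100 mM Tris-HCl pH 7.5, 80 mM KCl, 4 mM MgCl2, without or with constant ligand.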

MS2 coat protein [2] = experiment: apparent KD of MS2 coat protein, switch ON state; designed switch direction (-1 OFF switch, 1 ON switch): -1; higher = weaker reporter binding; conditions: FMN input: 0 or 200 uM; Eterna round: R93 (includes R88 designs)
How it was run: as §1

| Sequence | apparent KD of MS2 coat protein (MS2 coat protein [1]) | apparent KD of MS2 coat protein (MS2 coat protein [2]) |
| --- | --- | --- |
| AAAAAGGCAGGAUAUACAAAAAAAAAAAAAAAAAAGGAGGGACAUGAGGAUCACCCAUGUAGAAGGGCCAAAAA [Kai Theodor Erikson] | 121 nM | 97.4 nM |
| AAAAAGGCAGGAUAUACAUGAGGAUCACCCAUGUAAAGAAAAGAAAGAUCCAAAGAAAGUAGAAGGGCCAAAAA [Ex3 sub 3] | 170 nM | 48.8 nM |
| AAAAAGGCAGGAUAUACAUGAGGAUCACCCAUGUGCAAAAAAAAAAAAAAAAAAACAUGUAGAAGGGCCGAAAA [Skynet (1?)] | 86.3 nM | 45.2 nM |
| AAAAAGGCAGGAUAUACGAGUCAAAGAAAAGACAAAAGGAGACAUGAGGAUCACCCAUGUAGAAGGGCCAAAAA [Fiskers exclusion D2 62% 5] | 48.8 nM | 36.8 nM |
| AAAAAGGGAGGAUAUACAACACAGACAGAACAACAAACACAACAUGAGGAUCACCCAUGUAGAAGGCCCAAAAA [Default title] | 35.4 nM | 28.2 nM |
| AAAAAGGGAGGAUAUACAGGAGGUCAAAAAAAAAAAAAAAAACAUGAGGAUCACCCAUGUAGAAGGCUUAAAAA [Ecls2-III] | 27.3 nM | 26.7 nM |
| AAAAAGGGAGGAUAUACAUGAGGAUCACCCAUGUAAAAAAAAAAAAAAGGGAGGGAAGGUAGAAGGCCCAAAAA [Excls3-II] | 52.5 nM | 39.6 nM |
| AAAAAGGGAGGAUAUACAUGAGGAUCACCCAUGUAGCAGACGAAAAAGAGUCUGUAAUGUAGAAGGCCCAAAAA [65%, Moding Exclusion3-cac2, 4] | 32.2 nM | 16.2 nM |
| AAAAAGGGAGGAUAUACGAAACAGGGAAACCUGAAAAAGGGACAUGAGGAUCACCCAUGUAGAAGGCCCAAGAA [Clint Eastwood 64% 5] | 268 nM | 40.2 nM |
| AAAAAGGGAGGAUAUGCAAAGGGAAAGGGAAAGGGAAAGGGACAUGAGGAUCACCCAUGUAGAAGGCUCAAAAA [scarecrow2] | 34 nM | 56.1 nM |
| AAAAAGGUAGGAUAUGCUAAAUAACAUGUUGAAUAAAUAAAACAUGAGGAUCACCCAUGUAGAAGGACCAAAAA [Ex 2 Tesla 2] | 58.1 nM | 54 nM |
| AAAAAGUAAGGAUAUACAAAAGAAAACACAAAAAAAAAAAAACAUGAGGAUCACCCAUGUAGAAGGUACAAAAA [Ex2 Malc#1] | 19.3 nM | 27.3 nM |
| AAAAAGUAAGGAUAUACAAGAGAAAACACAAAAAAAAAAAAACAUGAGGAUCACCCAUGUAGAAGGUACAAAAA [Diamond 82] | 24.6 nM | 27.5 nM |
| AAAAAGUAAGGAUAUAGCAAAGGUCACGAAAGUGACAAAGGCUAGAAGGUACAUGAGGAUCACCCAUGUCCAAG [Mat - Exclusion 4 - Eli mod - D100] | 16.6 nM | 30.8 nM |
| AAAAAGUCAGGAUAUACAAAAGUGCGAAAGCACAAAAUGGGACAUGAGGAUCACCCAUGUAGAAGGGACAAGAA [JL In the Red 01 (Mod)] | 472 nM | 148 nM |
| AAAAAGUCAGGAUAUACAUGAGGAUCACCCAUGUGAAAGAACGAUUAACGAAAAGCAAGUAGAAGGGACAAAAA [Ruby 79] | 23.7 nM | 22.1 nM |
| AAAAAGUCAGGAUAUACAUGAGGAUCACCCAUGUGAAAGAACGAUUAACGACCAGCAAGUAGAAGGGACAAAAA [Ruby 80] | 20.8 nM | 22 nM |
| AAAAAGUCAGGAUAUACGAAAGUGCGAAAGCACAAAAAGGGACAUGAGGAUCACCCAUGUAGAAGGGACAAGAA [Married to this design, 61% 3] | 50.4 nM | 45.2 nM |
| AAAAAGUCAGGAUAUGUAGCAAAAAGUGAUCCAAAAAAGCUACAGAAGGGACAUGAGGAUCACCCAUGUAAAAA [Ex4: 931] | 98.2 nM | 86.5 nM |
| AAAAAGUCAGGAUAUGUAGCAUGAUACGAAAGUAUCAUGCUACAGAAGGGACAUGAGGAUCACCCAUGUGAUCA [Ex4: 938] | 33.2 nM | 365 nM |
| AAAAAGUCAGGAUAUUCGGAAGGGAAAGCGCAAACCCAACCGAAGAAGGGACAUGAGGAUCACCCAUGUAAAAA [Ecls4-III] | 42.9 nM | 49.6 nM |
